Values of other authors, collected in patent US11535641B2, “Method for preparing GOS having reduced allergenicity” (FRIESLANDCAMPINA NEDERLAND B.V., priority 2017, dated 2022).
Read-outs that look alike come from different tables or passages of the source.

How the values were obtained:
[1] = acetate buffer (pH 6.0)
[2] = for Ratio in GOS (%) DP2*: lactose not included; for Amount of GOS (content of GOS in total sugar): 24 hours, 53% lactose, 1 U per g lactose
[3] = GOS yield about 50% (65° C., 24 hours)
[4] = comparison of enzymes, GOS yield about 50%
[5] = comparison of enzymes, typical results when GOS yield about 50% (65° C., 24 hours)

Molecule	optimum temperature [1] [°C]	Ratio in GOS (%) DP2* [2, 4] [%]	Ratio in GOS (%) DP3 [2, 5] [%]	Ratio in GOS (%) ≥ DP4 [2, 5] [%]	Ratio in GOS (%) DP3 ([2]; reaction temperature 65° C.) [%]	Ratio in GOS (%) ≥ DP4 ([2]; reaction temperature 65° C.) [%]	Amount of GOS (content of GOS in total sugar) ([2]; reaction temperature 65° C.) [%]	Ratio in GOS (%) DP2* ([2]; reaction temperature 65° C.) [%]	Ratio in GOS (%) DP3 ([2]; reaction temperature 70° C.) [%]	Ratio in GOS (%) ≥ DP4 ([2]; reaction temperature 70° C.) [%]	Amount of GOS (content of GOS in total sugar) ([2]; reaction temperature 70° C.) [%]	Ratio in GOS (%) DP2* ([2]; reaction temperature 70° C.) [%]	Ratio in DP3 (%) β1-2, β1-3 [3] [%]	Ratio in DP3 (%) β1-4 [3] [%]	Ratio in DP3 (%) β1-6 [3] [%]	other results
C. terrestris M6 (mutant strain enzyme 3): β-galactosidase with N-terminal 141 residues of wild-type deleted, SEQ ID NO: 4 (protein, listed as Cryptococcus terrestris) ATGPVGGQGTPAVNFTDYSSSSLEQFWNDWVGEVEEPPFAYVPEPPNPYPLPNAPPPIYPEYYTKRPKDILPDYKFPKDFLFGWATAAQQWEGAVKADGKGPSIWDWASRFPGFIADNTTSDVGDLGYYLYKEDLARIAALGANVYSFSMFWTRIFPFGKADSPVNQAGIDFYHDLIDYSWSLGIEPVVTLFHWDTPLALQLEYGGFASERIIDDYVNYAETVFKAYNGSVHKWVTFNEPVVFCSQMAAPVNTTLPPNLNSTIYPYTCSYHLVLAHAKTVKRFRELNIQGQIAFKSDNFVGIPWREGNQEDIDAVERHQAYQIGIFAEPIYNTGDWPDIVKNDLSPDILPRFTDDEIAMIKCTADFFPIDGYRDGYVQAVPGGVEACVANISNPLWPACNQVNFYDSTPAGWAIGTFGNWPTTPWLQNTWQFVRPFLADLAKRYPTEGGIYLSEFGFSEPFENDKTFIYQITQDSGRTAYFNSYLGEVLKGIVEDGIPIKGVFGWSMVDNFEWNSGLSTRFGVQYVDYNSPTRQRTFKRSALEMSEFWNAHRCSA	70	25.8	54.2	19.9	53.4	20.9	53.2	26.0	49.2	24.5	53.9	26.3	22.1	75.2	2.7	Ratio in GOS (%) DP3 ([2]; reaction temperature 50° C.): 68.9%; Ratio in GOS (%) ≥ DP4 ([2]; reaction temperature 50° C.): 6.4%; Amount of GOS (content of GOS in total sugar) ([2]; reaction temperature 50° C.): 46.9%; Ratio in GOS (%) DP2* ([2]; reaction temperature 50° C.): 24.7%; Ratio in GOS (%) DP3 ([2]; reaction temperature 60° C.): 58.2%; Ratio in GOS (%) ≥ DP4 ([2]; reaction temperature 60° C.): 16.1%; Amount of GOS (content of GOS in total sugar) ([2]; reaction temperature 60° C.): 52.1%; Ratio in GOS (%) DP2* ([2]; reaction temperature 60° C.): 25.8%
WT strain enzyme: β-galactosidase from Cryptococcus terrestris strain MM13-F2171, SEQ ID NO: 1 (protein, listed as Cryptococcus terrestris) MIPASALLAAVPLLAQQVSAGILRRQNAAGSDSAAPDSIADASTGVVSSIATEAVSSGATGLVASVAMSFASSMATPTATVTGLSSETGAPSNTPMASASGSVPTTTSAVGSGDFDWVQTDGLPTITTTLATTNQDAITPTATGPVGGQGTPAVNFTDYSSSSLEQFWNDWVGEVEEPPFAYVPEPPNPYPLPNAPPPIYPEYYTKRPKDILPDYKFPKDFLFGWATAAQQWEGAVKADGKGPSIWDWASRFPGFIADNTTSDVGDLGYYLYKEDLARIAALGANVYSFSMFWTRIFPFGKADSPVNQAGIDFYHDLIDYSWSLGIEPVVTLFHWDTPLALQLEYGGFASERIIDDYVNYAETVFKAYNGSVHKWVTFNEPVVFCSQMAAPVNTTLPPNLNSTIYPYTCSYHLVLAHAKTVKRFRELNIQGQIAFKSDNFVGIPWREGNQEDIDAVERHQAYQIGIFAEPIYNTGDWPDIVKNDLSPDILPRFTDDEIAMIKCTADFFPIDGYRDGYVQAVPGGVEACVANISNPLWPACNQVNFYDSTPAGWAIGTFGNWPTTPWLQNTWQFVRPFLADLAKRYPTEGGIYLSEFGFSEPFENDKTFIYQITQDSGRTAYFNSYLGEVLKGIVEDGIPIKGVFGWSMVDNFEWNSGLSTRFGVQYVDYNSPTRQRTFKRSALEMSEFWNAHRCSA	70	25.8	57.5	16.7	51.8	22.1	53.4	26.1	47.4	25.8	54.2	26.8	22.1	76.3	1.5	enzyme activity retained ([1]; within the stable temperature range, 30 minutes): ≥ 80%
C. terrestris M2 (mutant strain enzyme 1): β-galactosidase with N-terminal 130 residues of wild-type deleted, SEQ ID NO: 2 (protein, listed as Cryptococcus terrestris) ATTNQDAITPTATGPVGGQGTPAVNFTDYSSSSLEQFWNDWVGEVEEPPFAYVPEPPNPYPLPNAPPPIYPEYYTKRPKDILPDYKFPKDFLFGWATAAQQWEGAVKADGKGPSIWDWASRFPGFIADNTTSDVGDLGYYLYKEDLARIAALGANVYSFSMFWTRIFPFGKADSPVNQAGIDFYHDLIDYSWSLGIEPVVTLFHWDTPLALQLEYGGFASERIIDDYVNYAETVFKAYNGSVHKWVTFNEPVVFCSQMAAPVNTTLPPNLNSTIYPYTCSYHLVLAHAKTVKRFRELNIQGQIAFKSDNFVGIPWREGNQEDIDAVERHQAYQIGIFAEPIYNTGDWPDIVKNDLSPDILPRFTDDEIAMIKCTADFFPIDGYRDGYVQAVPGGVEACVANISNPLWPACNQVNFYDSTPAGWAIGTFGNWPTTPWLQNTWQFVRPFLADLAKRYPTEGGIYLSEFGFSEPFENDKTFIYQITQDSGRTAYFNSYLGEVLKGIVEDGIPIKGVFGWSMVDNFEWNSGLSTRFGVQYVDYNSPTRQRTFKRSALEMSEFWNAHRCSA	70	25.3	60.5	14.2									20.7	79.0	0.4	
